According to patent US20240117034A1 (SHANGHAI JEMINCARE PHARMACEUTICAL, published 2024):

Tests used:
[1] = target: human GARP/human latent TGF-β1 complex on recombinant cells (293F-hGARP/hTGF-β1, CHOK1-hGARP/hTGF-β1) (human) (UniProt Q14392); experiment: flow cytometry on 293F-hGARP/hTGF-β1 clone 2D3
[2] = target: human GARP/human latent TGF-β1 complex on recombinant cells (293F-hGARP/hTGF-β1, CHOK1-hGARP/hTGF-β1) (human) (UniProt Q14392); experiment: flow cytometry on 293F-hGARP/hTGF-β1 clone 2F4
[3] = target: T1, human GARP/human latent TGF-β1 complex on recombinant cells (293F-hGARP/hTGF-β1, CHOK1-hGARP/hTGF-β1) (human, UniProt Q14392 20-662; P01137 30-390); experiment: flow cytometry titration on 293F-hGARP/hTGF-β1 cells, Alexa 488 anti-mouse IgG secondary
T1 construct: whole, on cells; Both full-length proteins were co-expressed on 293F or CHOK1 cells; The host cell of each assay is named in the assay field; also called 293F-hGARP/hTGF-β1 complex; clones 2F4 and 2D3
T1 sequence (Q14392 20-662, chain 1 of 2): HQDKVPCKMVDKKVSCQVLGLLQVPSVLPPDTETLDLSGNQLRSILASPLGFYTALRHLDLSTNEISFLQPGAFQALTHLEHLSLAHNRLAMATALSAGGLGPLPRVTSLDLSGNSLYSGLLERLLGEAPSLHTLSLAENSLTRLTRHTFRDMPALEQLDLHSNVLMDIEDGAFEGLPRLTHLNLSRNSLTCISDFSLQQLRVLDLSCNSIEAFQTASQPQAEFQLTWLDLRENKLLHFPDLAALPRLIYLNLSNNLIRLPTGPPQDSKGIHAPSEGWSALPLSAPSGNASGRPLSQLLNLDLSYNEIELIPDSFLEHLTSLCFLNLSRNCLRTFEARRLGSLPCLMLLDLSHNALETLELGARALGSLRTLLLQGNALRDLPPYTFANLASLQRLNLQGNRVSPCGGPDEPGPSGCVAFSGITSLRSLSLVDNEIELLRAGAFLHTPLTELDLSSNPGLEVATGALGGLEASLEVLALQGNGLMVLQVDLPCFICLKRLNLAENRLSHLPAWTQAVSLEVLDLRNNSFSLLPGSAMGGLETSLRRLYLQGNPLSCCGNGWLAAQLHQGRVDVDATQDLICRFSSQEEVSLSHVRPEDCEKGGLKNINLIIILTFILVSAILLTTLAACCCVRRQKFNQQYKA
T1 sequence (P01137 30-390, chain 2 of 2): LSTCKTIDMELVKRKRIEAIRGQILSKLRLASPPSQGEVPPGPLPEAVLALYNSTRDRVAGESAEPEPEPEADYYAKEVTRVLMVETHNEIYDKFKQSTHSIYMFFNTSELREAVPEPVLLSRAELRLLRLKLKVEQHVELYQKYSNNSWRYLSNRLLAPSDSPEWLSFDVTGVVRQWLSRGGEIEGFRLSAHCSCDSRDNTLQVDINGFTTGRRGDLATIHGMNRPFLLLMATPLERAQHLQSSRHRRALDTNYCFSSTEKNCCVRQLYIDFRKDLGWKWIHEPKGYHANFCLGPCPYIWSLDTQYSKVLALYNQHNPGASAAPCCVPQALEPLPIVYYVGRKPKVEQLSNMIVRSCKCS
Procedure: The cells were counted and centrifuged at 300 g for 5 min, the supernatant was discarded, the cell pellet was resuspended and washed with 1×PBS, then centrifuged at 300 g for 5 min, the supernatant was discarded, and then the cell pellet was resuspended with FACS buffer containing 2% FBS to adjust to a density of 1e6 cells/mL. The cells were plated at a density of 1e5 cells/well for a constant volume of 100 μL/well at 4° C. for 0.5 h, and centrifuged at 300 g for 5 min, and the supernatant was discarded. The antibody to be tested was prepared in FACS buffer containing 2% FBS with a starting concentration of 15 µg/mL, followed by serial dilution with a dilution factor of 1:5 in a total of 7 gradients, and then was added for a constant volume of 100 μL/well, with 0 μg/mL as a control, the dilution was pipetted and mixed thoroughly at 4° C. for 1 h, and centrifuged at 300 g for 5 min, and the supernatant was discarded. 1×PBS was added for a constant volume of 200 μL/well to resuspend and mix the cell pellet thoroughly, followed by centrifugation at 300 g for 5 min, the supernatant was discarded, and the steps were repeated twice. […] The cell pellet was resuspended in FACS buffer containing 2% FBS to read on a FACS machine. […]

[4] = target: T1, human GARP/human latent TGF-β1 complex …; experiment: flow cytometry competition on 293F-hGARP/hTGF-β1 cells; the competitor is Alexa 488-labelled MHG8 at a fixed concentration; falling curve
[5] = target: T2, hGARP/hTGF-β1 complex (Kactus Biosystems, Cat. No.: GAR-HM4TG) (human, UniProt Q14392 20-627; P01137 30-390, limits assumed); experiment: Octet RED96e (BLI), antibody captured on AHC sensor, complex in solution from 100 nM, 1:1 model
T2 construct: Bought soluble recombinant complex; also called antigen (hGARP/hTGF-β1 complex)
T2 sequence (Q14392 20-627 limits assumed, chain 1 of 2): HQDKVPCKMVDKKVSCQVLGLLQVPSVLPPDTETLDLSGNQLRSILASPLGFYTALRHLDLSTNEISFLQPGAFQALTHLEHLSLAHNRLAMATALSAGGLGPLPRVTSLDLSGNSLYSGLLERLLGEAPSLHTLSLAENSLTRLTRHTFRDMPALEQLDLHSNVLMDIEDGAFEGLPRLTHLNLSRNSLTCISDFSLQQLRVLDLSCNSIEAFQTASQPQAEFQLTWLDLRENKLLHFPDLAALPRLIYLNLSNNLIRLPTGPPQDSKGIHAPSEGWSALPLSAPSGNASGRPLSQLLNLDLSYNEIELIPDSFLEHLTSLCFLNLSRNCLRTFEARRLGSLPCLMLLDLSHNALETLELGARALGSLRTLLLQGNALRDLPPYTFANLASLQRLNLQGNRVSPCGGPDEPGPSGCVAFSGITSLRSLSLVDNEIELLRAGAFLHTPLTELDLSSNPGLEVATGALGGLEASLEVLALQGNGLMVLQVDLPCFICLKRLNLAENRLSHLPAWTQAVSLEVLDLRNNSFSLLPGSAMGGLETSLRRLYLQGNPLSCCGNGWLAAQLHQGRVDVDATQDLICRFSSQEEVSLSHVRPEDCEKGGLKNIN
T2 sequence (P01137 30-390 limits assumed, chain 2 of 2): as the sequence (P01137 30-390, chain 2 of 2) above

Chain of human GARP/human latent TGF-β1 complex on recombinant cells (293F-hGARP/hTGF-β1, CHOK1-hGARP/hTGF-β1) (human) (Q14392 20-662, chain 1 of 2): as the sequence (Q14392 20-662, chain 1 of 2) above
Chain of human GARP/human latent TGF-β1 complex on recombinant cells (293F-hGARP/hTGF-β1, CHOK1-hGARP/hTGF-β1) (human) (P01137 30-390, chain 2 of 2, further chain): as the sequence (P01137 30-390, chain 2 of 2) above

Molecule | Mean maximum fluorescence intensity (MFI) [1] [MFI] | Mean maximum fluorescence intensity (MFI) [2] [MFI] | EC50 [3] [µg/mL] | EC50 [4] [µg/mL] | Kd [5] [nM] | koff [5] [s⁻¹] | kon [5] [M⁻¹ s⁻¹]
anti-human GARP antibody-FITC (Enzo life science, ALX-804-867FI-0100) | 6960 | 8370 | – | – | – | – | –
Isotype control-FITC (antibody) | 103 | 101 | – | – | – | – | –
murine anti-human GARP monoclonal antibody 8H2D7B3 (antibody, V domains shown, Antibody purified from the hybridoma; It was detected with anti-mouse IgG, and mouse IgG1 served as isotype control; also called murine antibody 8H2D7B3) VH: QVQLQQSGAELVRPGSSVKLSCKASGYTLSNYWMYWVKQRPIQGLEWIGSIAPSDSETHYNQKFKDRATVTVDKSSRIVYMQLSSLTSEDSAVYFCARGGFGYGSSHWYFDVWGTGTTVTVSS VL: DIQMTQSSAYLSVSLGGRVTITCKASDHINKWLAWYQQKPGNAPRLLISGATSLETGIPSRFSGSGSGKDYTLSITGLQTEDVATYYCQQYWTTPYTFGGGTKLEIK | – | – | 0.108 | 1.61 | – | – | –

The next lines start with the values.

Mean maximum fluorescence intensity (MFI) [1] [MFI] | Mean maximum fluorescence intensity (MFI) [2] [MFI] | EC50 [3] [µg/mL] | EC50 [4] [µg/mL] | Kd [5] [nM] | koff [5] [s⁻¹] | kon [5] [M⁻¹ s⁻¹] | Molecule
103 | 90 | – | – | – | – | – | Isotype control-APC (antibody)
142000 | 150000 | – | – | – | – | – | anti-human TGF-β1 antibody, Anti-LAP (TGF-β1) Antibody-APC (R&D Systems, FAB2463A)
– | – | 0.12 | 2.74 | 0.205 | 2.85e-05 | 139000 | MHG8 (anti-human GARP antibody) (antibody, V domains shown) VH: QVQLKESGPGLVAPSQSLSITCTVSGFSLTGYGINWVRQPPGKGLEWLGMIWSDGSTDYNSVLTSRLRISKDNSNSQVFLKMNSLQVDDTARYYCARDRNYYDYDGAMDYWGQGTSVTVSS VL: DIQVTQSSSYLSVSLGDRVTITCKASDHIKNWLAWYQQKPGIAPRLLVSGATSLEAGVPSRFSGSGSGKNFTLSITSLQTEDVATYYCQQYWSTPWTFGGGTTLEIR
